1 molecule from paper PMC2034099, “Preparation and preclinical evaluation of humanised A33 immunoconjugates for radioimmunotherapy” (British Journal of Cancer, 1995) can be followed below.

In the assay the target is T1, A33 antigen (Homo sapiens, endogenous on SW1222 and …, UniProt Q99795).
T1 construct: A33 antigen on human colorectal tumour cell lines; also called the antigen recognised by A33; source: endogenous, on SW1222 and Colo205 human colorectal tumour cells
In words: flow cytometry on cells; Scatchard analysis: FITC-labelled antibodies titrated on 2.8 x 10^5 SW1222 cells, 2 h on ice, 350 ul PBS with 5% FCS and 0.1% sodium azide; fluorescence per cell calibrated with standard beads; linear regression. Particulars: one partner purified. For orientation: In flow cytometry, cells or beads pass a laser one at a time.

T1 sequence (Q99795 22-319): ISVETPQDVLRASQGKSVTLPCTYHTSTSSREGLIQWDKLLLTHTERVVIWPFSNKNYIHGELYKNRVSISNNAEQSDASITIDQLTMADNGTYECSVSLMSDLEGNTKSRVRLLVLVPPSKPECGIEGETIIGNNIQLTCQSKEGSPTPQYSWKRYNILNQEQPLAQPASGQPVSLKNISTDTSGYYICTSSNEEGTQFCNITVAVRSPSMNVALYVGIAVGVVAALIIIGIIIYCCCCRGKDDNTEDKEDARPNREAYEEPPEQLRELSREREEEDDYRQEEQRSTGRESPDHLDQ

B1: murine A33 IgG (antibody, V domains shown)
VH: EVKLVESGGGLVKPGGSLKLSCAASGFAFSTYDMSWVRQTPEKRLEWVATISSGGSYTYYLDSVKGRFTISRDSARNTLYLQMSSLRSEDTALYYCAPTTVVPFAYWGQGTLVTVSA
VL: DIVMTQSQKFMSTSVGDRVSITCKASQNVRTVVAWYQQKPGQSPKTLIYLASNRHTGVPDRFTGSGSGTDFTLTISNVQSEDLADYFCLQHWSYPLTFGSGTKLEVK
notes: the scan text reads CAPr at Kabat 92-96, restored to CAPTT from the hA33 line (94-102 are said to be murine); mouse gamma-2a heavy chain constant region ('the murine y-2a of the parent antibody'); mouse light chain constant region; IgG2a; also called mA33; mouse A33; copies: 2 + 2
As usually defined, the Kd is the concentration at which binding is half-saturated. Molecule B1 showed a Kd of 1.28 nM. This lies in the single-digit nanomolar range.
